Our source for the fluorescence to OD600 ratio (arbitrary units/OD600), fluorescence signal (fluorescence/OD600) (arbitrary units/OD600) and Kd values is publication PMC9952896.

Assay [1] concerns the target XD-CGFP (not His-tagged) (measles virus | not stated) (UniProt P03422). The assay is described as follows: split reporter (BiFC, NanoBiT); split-GFP reassembly competition assay, GFP variant sg100: E. coli T7 cells co-transformed with the NGFP plasmid, the CGFP plasmid and p17Tet with a competitor or p17Tet-stop; 0.5 mM IPTG and 2% arabinose, overnight to 72 h at 17 °C; fluorescence (arbitrary units) divided by OD600 of cells resuspended in PBS, triplicates.

Assay [2] concerns the target HSP-CGFP [GFP: P42212]. The assay is described as above.
The target in assay [3] is HSP (hsp70) (Homo sapiens) (UniProt P0DMV8). The conditions noted are these: cited from earlier work.
Chain of UniProt P0DMV8 (P0DMV8 2-641): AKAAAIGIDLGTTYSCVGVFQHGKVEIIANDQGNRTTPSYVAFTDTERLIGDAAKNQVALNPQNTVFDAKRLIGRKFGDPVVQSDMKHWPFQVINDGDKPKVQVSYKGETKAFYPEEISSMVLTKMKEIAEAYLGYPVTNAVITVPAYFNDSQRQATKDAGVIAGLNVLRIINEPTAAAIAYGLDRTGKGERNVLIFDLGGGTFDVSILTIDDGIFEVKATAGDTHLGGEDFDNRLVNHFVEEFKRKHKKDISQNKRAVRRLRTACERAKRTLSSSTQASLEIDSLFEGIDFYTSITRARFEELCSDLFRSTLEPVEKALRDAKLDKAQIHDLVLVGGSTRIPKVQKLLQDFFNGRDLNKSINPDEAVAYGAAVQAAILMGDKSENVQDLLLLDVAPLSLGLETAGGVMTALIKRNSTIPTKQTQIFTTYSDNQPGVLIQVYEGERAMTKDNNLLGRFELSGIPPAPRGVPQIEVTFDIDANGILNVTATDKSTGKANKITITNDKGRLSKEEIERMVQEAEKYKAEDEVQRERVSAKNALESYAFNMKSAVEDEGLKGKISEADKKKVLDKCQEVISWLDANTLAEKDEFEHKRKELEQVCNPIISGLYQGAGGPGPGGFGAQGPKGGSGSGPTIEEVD

Turning to “NGFP alone (His-NGFP, from the construct NGFP-stop) (from UniProt P42212 1-157) (domain or fragment)”, the fluorescence to OD600 ratio (arbitrary units/OD600) in assay [1] and in assay [2] was 200 throughout.
Turning to “NGFP-471 (His-NGFP-471) (from UniProt P42212 1-157; P04851 471-525) (domain or fragment)”, the fluorescence signal (fluorescence/OD600) (arbitrary units/OD600) in assay [2] amounted to 300.
Regarding “Nucleoprotein NTAIL NTAIL (from UniProt P35972)”, the Kd in assay [3] is 70 µM.

A word on the Kd: it is the concentration at which binding is half-saturated.
